Patent publication US20220144956A1 (published 2022)
Substitutions are numbered along the chain they refer to.

B1: XENP36180 H1.197 L1 (antibody, V domains shown)
VH: QLQVQESGPGLVKPSETLSLTCTVSGGSISQSYFSWGWIRQPPGKGLEWIGSFYYGGKTYYNPSLKSRATISIDTSKNQFSLKLSSVTAADTAVYYCARGPTLIRGVIDSWGQGTLVTVSS
VL: EIVLTQSPATLSLSPGERATLSCRASQSVRSYLAWYQQKPGQAPRLLIYDASNRATGIPARFSGSGSGTDFTLTISSLEPEDFAVYYCQQRSNWPPTFGQGTKVEIK
B2: XENP36182 H1.199 L1 (antibody, V domains shown)
VH: B1 VH with L103V
VL: B1 VL
B3: XENP36181 H1.198 L1 (antibody, V domains shown)
VH: B1 VH with L103T
VL: B1 VL
B4: TBRII-A_H1.51_L1 (antibody, V domains shown)
VH: B1 VH with Q31N, Y54N, G57E, N78S, A98P, L103M
VL: B1 VL
B5: XENP37815 TBRII-A_H1.271_L1.53 (antibody, V domains shown)
VH: B1 VH with Q31S, G37H
VL: B1 VL with W94Y
B6: XENP37818 TBRII-A_H1.190_L1.53 (antibody, V domains shown)
VH: B1 VH with Q31S, L103T
VL: B1 VL with W94Y
B7: TBRII-A_H1.30_L1 (antibody, V domains shown)
VH: B1 VH with Q31N, S35Y, G57E, N78S, A98P, L103M
VL: B1 VL
B8: TBRII-A_H1.1_L1 (antibody, V domains shown)
VH: B1 VH with Q31N, G57E, N78S, A98P, L103V
VL: B1 VL
B9: XENP37814 TBRII-A_H1.189_L1.53 (antibody, V domains shown)
VH: B1 VH with Q31S
VL: B1 VL with W94Y
B10: TBRII-A_H1.36_L1 (antibody, V domains shown)
VH: B1 VH with Q31N, G37S, G57E, N78S, A98P, L103M
VL: B1 VL
B11: XENP37813 TBRII-A_H1.270_L1 (antibody, V domains shown)
VH: B1 VH with Q31S, Y54N
VL: B1 VL
B12: XENP37817 TBRII-A_H1.272_L1 (antibody, V domains shown)
VH: B1 VH with Q31S, Y54N, L103T
VL: B1 VL
B13: TBRII-A_H1.29_L1 (antibody, V domains shown)
VH: B1 VH with Q31N, S35T, G57E, N78S, A98P, L103M
VL: B1 VL
B14: XENP37819 TBRII-A_H1.273_L1.53 (antibody, V domains shown)
VH: B1 VH with Q31S, G37H, L103T
VL: B1 VL with W94Y
B15: XENP37822 TBRII-A_H1.201_L1.53 (antibody, V domains shown)
VH: B1 VH with Q31N, S32A
VL: B1 VL with W94Y
B16: XENP37821 TBRII-A_H1.274_L1 (antibody, V domains shown)
VH: B1 VH with Q31N, S32A, Y54N
VL: B1 VL
B17: XENP34306 H1.1 L1 (antibody, V domains shown)
VH: B1 VH with Q31N, G57E, N78S, A98P, L103V
VL: B1 VL
B18: XENP35128 H1.50 L1 (antibody, V domains shown)
VH: B1 VH with Q31N, Y54K, G57E, N78S, A98P, L103M
VL: B1 VL
B19: XENP35125 H1.51 L1 (antibody, V domains shown)
VH: B1 VH with Q31N, Y54N, G57E, N78S, A98P, L103M
VL: B1 VL
B20: XENP35123 H1.36 L1 (antibody, V domains shown)
VH: B1 VH with Q31N, G37S, G57E, N78S, A98P, L103M
VL: B1 VL
B21: XENP35124 H1.37 L1 (antibody, V domains shown)
VH: B1 VH with Q31N, I39V, G57E, N78S, A98P, L103M
VL: B1 VL
B22: XENP35120 H1.29 L1 (antibody, V domains shown)
VH: B1 VH with Q31N, S35T, G57E, N78S, A98P, L103M
VL: B1 VL
B23: XENP35121 H1.30 L1 (antibody, V domains shown)
VH: B1 VH with Q31N, S35Y, G57E, N78S, A98P, L103M
VL: B1 VL
B24: XENP35126 H1.56 L1 (antibody, V domains shown)
VH: B1 VH with Q31N, N78S, A98P, L103M
VL: B1 VL
B25: XENP35127 H1.48 L1 (antibody, V domains shown)
VH: B1 VH with Q31N, Y54D, G57E, N78S, A98P, L103M
VL: B1 VL
B26: XENP35119 H1.21 L1 (antibody, V domains shown)
VH: B1 VH with Q31N, Y33A, G57E, N78S, A98P, L103M
VL: B1 VL
B27: XENP35122 H1.33 L1 (antibody, V domains shown)
VH: B1 VH with Q31N, G37A, G57E, N78S, A98P, L103M
VL: B1 VL
B28: XENP34305 H1 L1 (antibody, V domains shown)
VH: B1 VH with Q31N, G57E, N78S, A98P, L103M
VL: B1 VL
B29: H1 L1.61 XENP34624 (antibody, V domains shown)
VH: B1 VH with Q31N, G57E, N78S, A98P, L103M
VL: B1 VL with V104L
B30: H1 L1.46 XENP34609 (antibody, V domains shown)
VH: B1 VH with Q31N, G57E, N78S, A98P, L103M
VL: B1 VL with N93S
B31: H1 L1.53 XENP34616 (antibody, V domains shown)
VH: B1 VH with Q31N, G57E, N78S, A98P, L103M
VL: B1 VL with W94Y
B32: H1 L1.45 XENP34608 (antibody, V domains shown)
VH: B1 VH with Q31N, G57E, N78S, A98P, L103M
VL: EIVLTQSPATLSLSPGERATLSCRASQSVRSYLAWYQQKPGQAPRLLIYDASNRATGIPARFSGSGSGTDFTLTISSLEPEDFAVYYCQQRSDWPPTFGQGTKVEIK
B33: H1 L1.59 XENP34622 (antibody, V domains shown)
VH: B1 VH with Q31N, G57E, N78S, A98P, L103M
VL: B1 VL with Q100G
B34: H1 L1.47 XENP34610 (antibody, V domains shown)
VH: B1 VH with Q31N, G57E, N78S, A98P, L103M
VL: B1 VL with N93Q

Molecular target: T1, human TGFßRII (antigen of the Octet experiments) (human, UniProt P37173 23-166)
Test: not given

T1 sequence (P37173 23-166): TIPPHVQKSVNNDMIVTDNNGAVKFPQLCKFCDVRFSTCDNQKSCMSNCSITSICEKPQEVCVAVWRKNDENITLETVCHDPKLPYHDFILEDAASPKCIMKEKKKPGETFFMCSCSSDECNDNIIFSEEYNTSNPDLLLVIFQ

Row | Kd [nM] | Binder
1 | 6.07 | B1
2 | 7.43 | B2
3 | 8.4 | B3

Molecular target: T1, human TGFßRII (antigen of the Octet …)
Test: not given
Remark: another data set of the same source

Row | Kd [nM] | Binder
4 | 53 | B4
5 | 411 | B5
6 | 109 | B6
7 | 14 | B7
8 | 2.1 | B8
9 | 58.9 | B9
10 | 3.5 | B10
11 | 31.6 | B11
12 | 58.2 | B12
13 | 4.2 | B13
14 | 7.7 | B14
15 | 46.6 | B15
16 | 16.8 | B16

Molecular target: T1, human TGFßRII (antigen of the Octet …)
Test: Octet

Row | Kd [nM] | Binder
17 | 4.02 | B17
18 | 31.4 | B18
19 | 23 | B19
20 | 5.1 | B20
21 | 2.63 | B21
22 | 4.6 | B22
23 | 10.3 | B23
24 | 3.36 | B24
25 | 35 | B25
26 | 2.79 | B26
27 | 3.42 | B27
28 | 2.92 | B28

Molecular target: T1, human TGFßRII (antigen of the Octet …)
Test: BLI (Octet)

Row | Kd [nM] | Binder
29 | 0.642 | B29
30 | 0.666 | B30
31 | 0.596 | B31
32 | 0.604 | B32
33 | 0.311 | B33
34 | 0.296 | B34
